± gives the standard deviation.
Assay: collision cross section of modified peptide (TIMS, N2, iRT-aligned); higher = larger / more extended gas-phase ion
Procedure, shortened: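 Collision cross section was derived from the Mason-Schamp equation. Each value averages 1–3 technical replicates of the most abundant feature per charge state, measured on a timsTOF Pro/HT in dda-PASEF mode (nitrogen, ~2.4 mbar) after a 120-min nanoflow C18 gradient at 60 °C. Synthetic peptide pools (~100 fmol/µL in 2% acetonitrile/0.1% formic acid, iRT standard spiked 1:40) were identified with MaxQuant, and 1/K0 was calibrated with three reference ions and aligned run-wise to the median iRT peptide deviation.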

[1] = charge state: 2, modification: Formyl
[2] = charge state: 2, modification: Dimethyl (K)
[3] = charge state: 2, modification: Methyl (K)
[4] = charge state: 3, modification: Methyl (K)
[5] = charge state: 2, modification: Crotonyl
[6] = charge state: 2, modification: Citrullination (R)
[7] = charge state: 3, modification: Citrullination (R)
[8] = charge state: 2, modification: Hydroxyproline
[9] = charge state: 2, modification: GlyGly (K)
[10] = charge state: 3, modification: GlyGly (K)
[11] = charge state: 2, modification: Glutarylation
[12] = charge state: 2, modification: Biotin
[13] = charge state: 2, modification: Butyryl
[14] = charge state: 3, modification: Butyryl
[15] = charge state: 2, modification: hydroxyisobutyryl
[16] = charge state: 3, modification: Crotonyl
[17] = charge state: 3, modification: Dimethyl (K)
[18] = charge state: 2, modification: Malonyl
[19] = charge state: 2, modification: Acetyl (K)
[20] = charge state: 3, modification: Acetyl (K)
[21] = charge state: 3, modification: hydroxyisobutyryl
[22] = charge state: 3, modification: Glutarylation
[23] = charge state: 2, modification: Trimethyl (K)
[24] = charge state: 3, modification: Trimethyl (K)
[25] = charge state: 2, modification: Phospho (Y)
[26] = charge state: 3, modification: Methyl (R)

## VTLEVGKVIQQGR [_VTLEVGK(Formyl)VIQQGR_]
[1]
  collision cross section: 402.06 ± 2.7 Å²
Charge state: 3, modification: Formyl
  collision cross section: 475.94 ± 2.1 Å²

## IPQEKCILQTDVK [_IPQEK(Formyl)CILQTDVK_]
[1]
  collision cross section: 427.41 Å²

## PSVSTKLISK [_PSVSTK(Dimethyl (K))LISK_]
[2]
  collision cross section: 362.9 ± 0.28 Å²

## FGTINIVHPKLGSYTK [_FGTINIVHPK(Methyl (K))LGSYTK_]
[3]
  collision cross section: 470.37 Å²
[4]
  collision cross section: 541.06 ± 0.45 Å²

## VGEFSGANKEK [_VGEFSGANK(Crotonyl)EK_]
[5]
  collision cross section: 370.98 ± 0.8 Å²

## RLPNVHGR [_R(Citrullination (R))LPNVHGR_]
[6]
  collision cross section: 340.93 ± 1.6 Å²
[7]
  collision cross section: 417.11 ± 3.5 Å²

## GPPGPPGK [_GPPGP(Hydroxyproline)PGK_]
[8]
  collision cross section: 274.06 ± 0.78 Å²

## ITGKNQVTATK [_ITGK(GlyGly (K))NQVTATK_]
[9]
  collision cross section: 373.22 ± 0.38 Å²
[10]
  collision cross section: 442.8 ± 1.1 Å²

## STGLELETPSLVPVKK [_STGLELETPSLVPVK(GlyGly (K))K_]
[9]
  collision cross section: 452.54 ± 1.9 Å²
[10]
  collision cross section: 530.27 ± 9.4 Å²

## TPSSFRQPFTPTSR [_TPSSFR(Citrullination (R))QPFTPTSR_]
[7]
  collision cross section: 499.72 Å²

## TTGFYSGFSEVAEKR [_TTGFYSGFSEVAEK(Crotonyl)R_]
[5]
  collision cross section: 441.38 ± 0.77 Å²

## LAEEENKAK [_LAEEENK(Gluratylation)AK_]
[11]
  collision cross section: 353.09 ± 0.078 Å²

## SPDEAYAIAKK [_SPDEAYAIAK(Biotin)K_]
[12]
  collision cross section: 394.29 ± 1.1 Å²

## AGQKLIDVNHYAK [_AGQK(Butyryl)LIDVNHYAK_]
[13]
  collision cross section: 434.25 ± 1.1 Å²
[14]
  collision cross section: 485.15 ± 2.9 Å²

## VNALKNLQVK [_VNALK(hydroxyisobutyryl)NLQVK_]
[15]
  collision cross section: 374.85 ± 0.8 Å²

## IHNAENIQPGEQKYEYK [_IHNAENIQPGEQK(Crotonyl)YEYK_]
[16]
  collision cross section: 531.58 ± 2.8 Å²

## LQDVSGQLSSSKK [_LQDVSGQLSSSK(Methyl (K))K_]
[3]
  collision cross section: 404.82 ± 1.9 Å²
[4]
  collision cross section: 465.49 ± 8.7 Å²

## GAEKTEVAEPR [_GAEK(Dimethyl (K))TEVAEPR_]
[2]
  collision cross section: 374.44 ± 1.3 Å²
[17]
  collision cross section: 439.06 ± 1.6 Å²

## SNEEGSEEKGPEVR [_SNEEGSEEK(hydroxyisobutyryl)GPEVR_]
[15]
  collision cross section: 409.53 ± 1.1 Å²

## SPSDSGYSYETIGKTTK [_SPSDSGYSYETIGK(Crotonyl)TTK_]
[5]
  collision cross section: 455.39 ± 0.82 Å²
[16]
  collision cross section: 528.2 ± 1.2 Å²

## GEKGNPGVGTQGPR [_GEKGNP(Hydroxyproline)GVGTQGPR_]
[8]
  collision cross section: 371.11 ± 0.55 Å²
Charge state: 3, modification: Hydroxyproline
  collision cross section: 431.33 ± 1.3 Å²

## SSFAYKDQNENR [_SSFAYK(hydroxyisobutyryl)DQNENR_]
[15]
  collision cross section: 405.04 ± 0.3 Å²

## VSPASSVDSNIPSSQGYKK [_VSPASSVDSNIPSSQGYK(Malonyl)K_]
[18]
  collision cross section: 465.75 ± 0.51 Å²
Charge state: 3, modification: Malonyl
  collision cross section: 526.18 ± 21 Å²

## LGNDFHTNKR [_LGNDFHTNK(Crotonyl)R_]
[5]
  collision cross section: 379.22 ± 1.3 Å²
[16]
  collision cross section: 445.34 ± 2 Å²

## FSAYIKNSNPALNDNLEK [_FSAYIK(Methyl (K))NSNPALNDNLEK_]
[3]
  collision cross section: 493.27 Å²
[4]
  collision cross section: 508.45 ± 2.8 Å²

## YEEIVKEVSTYIK [_YEEIVK(Dimethyl (K))EVSTYIK_]
[17]
  collision cross section: 492.52 Å²

## TVSKVDDFLANEAK [_TVSK(Malonyl)VDDFLANEAK_]
[18]
  collision cross section: 420.45 ± 0.57 Å²

## SDDESSQKDIK [_SDDESSQK(Acetyl (K))DIK_]
[19]
  collision cross section: 374.03 ± 0.38 Å²

## GETASKLQSEISR [_GETASK(Acetyl (K))LQSEISR_]
[19]
  collision cross section: 386.09 ± 2 Å²
[20]
  collision cross section: 464.45 ± 0.086 Å²

## SGKFTQQDIDEAK [_SGK(Acetyl (K))FTQQDIDEAK_]
[19]
  collision cross section: 412.93 ± 2.8 Å²

## SKLLFSNTAAQK [_SK(Crotonyl)LLFSNTAAQK_]
[5]
  collision cross section: 402.06 ± 0.79 Å²

## LLFSNTAAQKLR [_LLFSNTAAQK(Formyl)LR_]
[1]
  collision cross section: 395.38 ± 0.55 Å²

## LQEKVESAQSEQK [_LQEK(Butyryl)VESAQSEQK_]
[13]
  collision cross section: 419.43 ± 0.77 Å²
[14]
  collision cross section: 504.21 ± 1.9 Å²

## SDSGKPYYYNSQTK [_SDSGK(Acetyl (K))PYYYNSQTK_]
[19]
  collision cross section: 419.63 ± 2 Å²

## TLQKQSVVYGGK [_TLQK(Acetyl (K))QSVVYGGK_]
[19]
  collision cross section: 392.07 ± 0.61 Å²

## IDLPAENSNSETIIITGKR [_IDLPAENSNSETIIITGK(GlyGly (K))R_]
[9]
  collision cross section: 493.9 ± 1.8 Å²
[10]
  collision cross section: 582.79 ± 0.38 Å²

## ASNAAVKLAESK [_ASNAAVK(GlyGly (K))LAESK_]
[9]
  collision cross section: 395.25 ± 1.5 Å²
[10]
  collision cross section: 457.62 ± 1.1 Å²

## VGIDTPDIDIHGPEGKLK [_VGIDTPDIDIHGPEGK(Butyryl)LK_]
[13]
  collision cross section: 496.6 ± 1 Å²
[14]
  collision cross section: 542.04 ± 1.1 Å²

## GEVGAGAGPGAQAGPSAKR [_GEVGAGAGPGAQAGPSAK(Crotonyl)R_]
[5]
  collision cross section: 426.44 ± 0.55 Å²
[16]
  collision cross section: 497.45 ± 1.2 Å²

## VTLEVGKVIQQGR [_VTLEVGK(hydroxyisobutyryl)VIQQGR_]
[15]
  collision cross section: 414.48 ± 0.55 Å²
[21]
  collision cross section: 486.66 ± 1.9 Å²

## GDPGLIGPK [_GDP(Hydroxyproline)GLIGPK_]
[8]
  collision cross section: 312.86 ± 1.3 Å²

## TFGKAAGPSLSHTSGGTQSK [_TFGK(hydroxyisobutyryl)AAGPSLSHTSGGTQSK_]
[15]
  collision cross section: 498.68 ± 0.33 Å²
[21]
  collision cross section: 512.39 ± 2.8 Å²

## GFALVGVGSEASSKK [_GFALVGVGSEASSK(Gluratylation)K_]
[11]
  collision cross section: 416.74 ± 0.49 Å²
[22]
  collision cross section: 499.26 ± 3.6 Å²

## SLGEPAAGEGSAKR [_SLGEPAAGEGSAK(Trimethyl (K))R_]
[23]
  collision cross section: 404.92 ± 19 Å²
[24]
  collision cross section: 462.02 ± 2.7 Å²

## PSVSTKLISK [_PSVSTK(Trimethyl (K))LISK_]
[23]
  collision cross section: 364.51 ± 0.61 Å²
[24]
  collision cross section: 427.1 ± 2.4 Å²

## LSSETYSQAK [_LSSETY(Phospho (Y))SQAK_]
[25]
  collision cross section: 357.2 ± 0.065 Å²

## HLRGHGPQPPLR [_HLR(Methyl (R))GHGPQPPLR_]
[26]
  collision cross section: 492.6 ± 2.1 Å²

## GATVTRGVPPPPTVR [_GATVTR(Citrullination (R))GVPPPPTVR_]
[6]
  collision cross section: 398.42 ± 2.1 Å²
[7]
  collision cross section: 501.66 Å²

## LEKTIDDLEEK [_LEK(GlyGly (K))TIDDLEEK_]
[9]
  collision cross section: 403.14 ± 0.36 Å²
[10]
  collision cross section: 473.69 ± 1.1 Å²

## GTVPDDAVEALADSLGKK [_GTVPDDAVEALADSLGK(Succinyl)K_]
Charge state: 2, modification: Succinyl
  collision cross section: 459.53 ± 1.1 Å²
Charge state: 3, modification: Succinyl
  collision cross section: 536.91 ± 2.2 Å²

## SSFAYKDQNENR [_SSFAYK(Methyl (K))DQNENR_]
[3]
  collision cross section: 422.28 ± 0.64 Å²
[4]
  collision cross section: 455.52 ± 4 Å²

## SKLLFSNTAAQK [_SK(Biotin)LLFSNTAAQK_]
[12]
  collision cross section: 417.26 ± 2.9 Å²

## LLEEEDSKLK [_LLEEEDSK(Propionyl)LK_]
Charge state: 2, modification: Propionyl
  collision cross section: 383.32 ± 0.94 Å²

## IQTKAGEATVK [_IQTK(Dimethyl (K))AGEATVK_]
[2]
  collision cross section: 367.67 ± 0.82 Å²

## ASCLYGQLPK [_ASCLY(Phospho (Y))GQLPK_]
[25]
  collision cross section: 373.97 ± 0.65 Å²

## DSINFLDHINGKK [_DSINFLDHINGK(Gluratylation)K_]
[22]
  collision cross section: 460.36 ± 1.7 Å²

## AQSYAQQLGR [_AQSY(Nitro (Y))AQQLGR_]
Charge state: 2, modification: Nitro (Y)
  collision cross section: 354.17 ± 0.17 Å²

## GQQGEPGPK [_GQQGEP(Hydroxyproline)GPK_]
[8]
  collision cross section: 313.43 ± 0.56 Å²

## LLFSNTAAQKLR [_LLFSNTAAQK(Acetyl (K))LR_]
[19]
  collision cross section: 400.1 ± 2.9 Å²
[20]
  collision cross section: 478.35 ± 0.83 Å²

## ILDLKTGTVK [_ILDLK(Dimethyl (K))TGTVK_]
[2]
  collision cross section: 355.49 ± 0.51 Å²

## GGPGGELPRGPQAGLGPR [_GGPGGELPR(Citrullination (R))GPQAGLGPR_]
[6]
  collision cross section: 413.18 ± 0.98 Å²
[7]
  collision cross section: 502.3 ± 0.77 Å²

## LFVGGIKEDTEEHHLR [_LFVGGIK(GlyGly (K))EDTEEHHLR_]
[9]
  collision cross section: 499.18 Å²
[10]
  collision cross section: 544.61 ± 1.1 Å²

## ASAISIKLGSSK [_ASAISIK(Gluratylation)LGSSK_]
[11]
  collision cross section: 376.68 ± 0.1 Å²

## AAHGRGALAEAAR [_AAHGR(Methyl (R))GALAEAAR_]
Charge state: 2, modification: Methyl (R)
  collision cross section: 401.51 ± 8.3 Å²
[26]
  collision cross section: 469.45 ± 1.5 Å²

## SLEEEGAAHSGKR [_SLEEEGAAHSGK(hydroxyisobutyryl)R_]
[15]
  collision cross section: 421.1 ± 1.9 Å²
[21]
  collision cross section: 479.68 ± 2.1 Å²

## DLSTVEALQNLKNLK [_DLSTVEALQNLK(Methyl (K))NLK_]
[3]
  collision cross section: 475.78 ± 3.5 Å²
[4]
  collision cross section: 545.72 ± 1.2 Å²

## PSVSTKLISK [_PSVSTK(hydroxyisobutyryl)LISK_]
[15]
  collision cross section: 359.8 ± 1.9 Å²

— the supplement of paper PMC10598134
